T1: his-tagged recombinant human Flt3 receptor (Sino Biologicals) (human, UniProt P36888 27-541, limits assumed)
T1 construct: Bought protein; also called human recombinant FLT3; not shown: His tag
T1 sequence (looked up): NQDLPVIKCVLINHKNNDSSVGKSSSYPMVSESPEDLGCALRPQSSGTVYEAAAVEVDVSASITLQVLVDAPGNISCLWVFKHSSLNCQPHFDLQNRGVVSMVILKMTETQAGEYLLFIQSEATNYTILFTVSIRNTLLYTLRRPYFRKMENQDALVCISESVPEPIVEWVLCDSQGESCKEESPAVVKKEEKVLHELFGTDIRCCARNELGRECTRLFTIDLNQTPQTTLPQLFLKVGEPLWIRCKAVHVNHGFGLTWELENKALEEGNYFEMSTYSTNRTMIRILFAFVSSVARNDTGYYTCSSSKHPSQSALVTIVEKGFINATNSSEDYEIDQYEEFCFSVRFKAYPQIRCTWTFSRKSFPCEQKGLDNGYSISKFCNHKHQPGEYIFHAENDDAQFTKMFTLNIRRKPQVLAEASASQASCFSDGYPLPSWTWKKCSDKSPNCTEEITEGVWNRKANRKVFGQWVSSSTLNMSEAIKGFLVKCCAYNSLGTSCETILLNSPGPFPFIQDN

T2: human FLT3 on the AML5 cell line (human, UniProt P36888 27-993)
T2 sequence (looked up): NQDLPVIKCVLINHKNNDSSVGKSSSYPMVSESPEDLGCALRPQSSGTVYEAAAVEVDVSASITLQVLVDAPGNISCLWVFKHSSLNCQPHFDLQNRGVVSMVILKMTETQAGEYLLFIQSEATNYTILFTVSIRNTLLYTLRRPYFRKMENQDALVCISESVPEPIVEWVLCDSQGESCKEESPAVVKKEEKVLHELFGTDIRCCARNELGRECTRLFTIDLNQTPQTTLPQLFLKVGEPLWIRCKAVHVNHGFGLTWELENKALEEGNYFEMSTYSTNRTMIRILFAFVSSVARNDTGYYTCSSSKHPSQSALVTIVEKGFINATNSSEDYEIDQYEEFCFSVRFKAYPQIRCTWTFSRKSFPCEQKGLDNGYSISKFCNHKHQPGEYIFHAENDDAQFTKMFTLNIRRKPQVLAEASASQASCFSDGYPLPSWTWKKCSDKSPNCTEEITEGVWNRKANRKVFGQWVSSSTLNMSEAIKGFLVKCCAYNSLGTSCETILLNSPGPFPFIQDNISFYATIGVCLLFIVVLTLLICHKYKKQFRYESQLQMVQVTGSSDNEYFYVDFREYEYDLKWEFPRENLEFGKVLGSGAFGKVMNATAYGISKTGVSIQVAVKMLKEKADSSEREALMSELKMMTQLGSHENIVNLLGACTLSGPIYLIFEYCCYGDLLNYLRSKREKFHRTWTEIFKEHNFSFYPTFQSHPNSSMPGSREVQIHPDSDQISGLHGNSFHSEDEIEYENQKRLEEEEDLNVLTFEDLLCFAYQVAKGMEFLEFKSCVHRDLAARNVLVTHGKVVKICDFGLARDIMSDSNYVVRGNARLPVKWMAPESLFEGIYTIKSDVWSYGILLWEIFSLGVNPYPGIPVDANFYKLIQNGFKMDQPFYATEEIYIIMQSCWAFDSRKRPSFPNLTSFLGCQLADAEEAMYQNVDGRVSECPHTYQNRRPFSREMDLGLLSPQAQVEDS

B1: human FLT3-ligand human hingeless IgG1 (M252Y/S254T/T256E) fusion protein (SEQ ID NO:9) (Fc fusion)
chain: TQDCSFQHSPISSDFAVKIRELSDYLLQDYPVTVASNLQDEELCGGLWRLVLAQRWMERLKTVAGSKMQGLLERVNTEIHFVTKCAFQPPPSCLRFVQTNISRLLQETSEQLVALKPWITRQNFSRCLELQCQPDSSTLPPPWSPRPLEATAPTAPQGGPSVFLFPPKPKDTLYITREPEVTCVVVDVSHEDPEVKFNWYVDGVEVHNAKTKPREEQYNSTYRVVSVLTVLHQDWLNGKEYKCKVSNKALPAPIEKTISKAKGQPREPQVYTLPPSREEMTKNQVSLTCLVKGFYPSDIAVEWESNGQPENNYKTTPPVLDSDGSFFLYSKLTVDKSRWQQGNVFSCSVMHEALHNHYTQKSLSLSPGK
notes: also called FLT3L ECD-hingeless hG1 (M252Y/S254T/T256E)
B2: human FLT3-ligand (Δ5 amino acid) human IgG4 (S228P/F234A/L235A/M252Y/S254T/T256E) fusion protein (SEQ ID NO:14) (Fc fusion)
chain: TQDCSFQHSPISSDFAVKIRELSDYLLQDYPVTVASNLQDEELCGGLWRLVLAQRWMERLKTVAGSKMQGLLERVNTEIHFVTKCAFQPPPSCLRFVQTNISRLLQETSEQLVALKPWITRQNFSRCLELQCQPDSSTLPPPWSPRPLEATAESKYGPPCPPCPAPEAAGGPSVFLFPPKPKDTLYITREPEVTCVVVDVSQEDPEVQFNWYVDGVEVHNAKTKPREEQFNSTYRVVSVLTVLHQDWLNGKEYKCKVSNKGLPSSIEKTISKAKGQPREPQVYTLPPSQEEMTKNQVSLTCLVKGFYPSDIAVEWESNGQPENNYKTTPPVLDSDGSFFLYSRLTVDKSRWQEGNVFSCSVMHEALHNHYTQKSLSLSLGK
notes: also called FLT3L ECD (Δ C-term 5aa (PTAPQ)) - hG4 (S228P/F234A/L235A/M252Y/S254T/T256E)

Key:
[1] = target: T3, recombinant human C1q protein (Fitzgerald) (human, UniProt P02745 23-245; P02746 28-253; P02747 29-245, limits assumed); assay: ELISA, test article immobilized, C1q added; text: devoid of C1q binding ability
T3 construct: also called human recombinant complement protein, C1q
T3 sequence (P02745 23-245 limits assumed, chain 1 of 3): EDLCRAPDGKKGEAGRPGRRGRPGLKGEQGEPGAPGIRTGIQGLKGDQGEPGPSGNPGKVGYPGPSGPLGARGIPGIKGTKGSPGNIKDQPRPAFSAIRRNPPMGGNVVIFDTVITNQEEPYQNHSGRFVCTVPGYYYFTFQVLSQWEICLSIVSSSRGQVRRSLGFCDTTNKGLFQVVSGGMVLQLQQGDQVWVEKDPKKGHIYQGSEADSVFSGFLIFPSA
T3 sequence (P02746 28-253 limits assumed, chain 2 of 3): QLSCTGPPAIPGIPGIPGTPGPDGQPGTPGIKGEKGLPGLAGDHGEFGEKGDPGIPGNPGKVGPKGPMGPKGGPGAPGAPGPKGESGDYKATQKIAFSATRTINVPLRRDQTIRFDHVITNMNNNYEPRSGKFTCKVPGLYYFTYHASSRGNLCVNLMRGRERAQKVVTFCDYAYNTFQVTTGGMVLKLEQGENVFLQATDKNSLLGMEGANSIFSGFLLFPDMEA
T3 sequence (P02747 29-245 limits assumed, chain 3 of 3): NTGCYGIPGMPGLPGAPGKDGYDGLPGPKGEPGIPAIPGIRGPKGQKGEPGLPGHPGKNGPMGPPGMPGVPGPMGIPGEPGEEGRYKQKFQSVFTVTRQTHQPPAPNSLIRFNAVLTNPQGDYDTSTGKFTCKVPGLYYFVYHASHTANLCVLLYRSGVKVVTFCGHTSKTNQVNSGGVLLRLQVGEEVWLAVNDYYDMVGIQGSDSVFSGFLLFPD

[2] = target: T4, recombinant human FcRn (human, UniProt P55899 24-297; P61769 21-119, limits assumed); assay: FcRn ELISA
T4 construct: a beta-2-microglobulin chain is not mentioned; also called human recombinant FcRn
T4 sequence (P55899 24-297 limits assumed, chain 1 of 2): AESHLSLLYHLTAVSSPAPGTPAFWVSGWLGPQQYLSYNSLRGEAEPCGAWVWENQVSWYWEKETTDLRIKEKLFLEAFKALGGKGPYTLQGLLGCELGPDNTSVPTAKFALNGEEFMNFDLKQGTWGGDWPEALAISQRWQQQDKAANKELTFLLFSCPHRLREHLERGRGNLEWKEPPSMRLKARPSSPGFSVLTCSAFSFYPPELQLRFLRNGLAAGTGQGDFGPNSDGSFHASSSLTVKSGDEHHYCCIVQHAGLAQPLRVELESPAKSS
T4 sequence (P61769 21-119 limits assumed, chain 2 of 2): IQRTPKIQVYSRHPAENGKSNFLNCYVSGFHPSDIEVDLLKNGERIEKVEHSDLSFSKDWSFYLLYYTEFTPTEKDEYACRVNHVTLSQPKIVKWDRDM

[3] = target: T1, his-tagged recombinant human Flt3 …; assay: ELISA; His-tagged recombinant human Flt3 on nickel plate, serially diluted Flt3L-Fc, anti-human (H+L)-HRP, 4PL fit
Description: (§1) Graph is a result of one experiment. Experiment was performed in duplicate. Error bars represent standard deviation of the mean values.
Signal was developed using TMB substrate then quenched prior to reading absorbance at 450 nm on a SpectraMax plate reader.

[4] = target: T4, recombinant human FcRn; assay: ELISA; recombinant human FcRn coated, serially diluted test article, anti-human (H+L)-HRP, 4PL fit
Description: as §1
Signal was developed using TMB substrate then quenched prior to reading absorbance at 450-650 nm on a SpectraMax plate reader.

[5] = target: T2, human FLT3 on the AML5 cell line; assay: cell-based or functional assay

Row | Binder | binding result [1] | fold increase in FcRn binding against SEQ ID NO:1 [2] [fold] | EC50 [3] [nM] | EC50 [4] [nM] | EC50 (nM), AML5 proliferation [5] [nM] | fold increase in FcRn binding against SEQ ID NO:6 [2] [fold]
1 | B1 | no binding (tested: 94 nM (highest of the titration)) | 38 | 0.88 | 61 | 0.037 | 
2 | B2 | no binding (tested: 94 nM (highest of the titration)) |  | 0.92 | 178 | 0.046 | 2
